US20260184782A1 (TWIST BIOSCIENCE, published 2026)
Where a chain is given by its changes, count along the chain named.

T1: human TIGIT-Fc (human, UniProt Q495A1 22-141, limits assumed)
T1 construct: not shown: Fc; not described
T1 sequence (looked up): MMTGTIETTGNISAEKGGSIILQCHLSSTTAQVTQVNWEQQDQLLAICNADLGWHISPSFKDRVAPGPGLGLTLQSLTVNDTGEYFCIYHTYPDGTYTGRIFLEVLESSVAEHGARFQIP

T2: TIGIT (UniProt Q495A1 22-141, limits assumed)
T2 construct: also called T cell immunoreceptor with Ig and ITIM domains; hTIGIT
T2 sequence (looked up): T1 sequence (looked up)

B1: TIGIT-SC31 (Fc fusion)
VHH: EVQLVESGGGLVQPGGSLRLSCAASGRAFESYAMGWFRQAPGKERELVATIGWSGTDYADSVKGRFTISADNSKNTAYLQMNSLKPEDTAVYYCAKGYTSGLSDWGQGTLVTVSS
notes: VHH-Fc
B2: TIGIT-SC36 (Fc fusion)
VHH: EVQLVESGGGLVQPGGSLRLSCAASGNTFNFNVMGWFRQAPGKEREAVASIWRSGGNTYYADSVKGRFTISADNSKNTAYLQMNSLKPEDTAVYYCARDLEWRPYYMDVWGQGTLVTVSS
notes: VHH-Fc
B3: TIGIT-SC38 (Fc fusion)
VHH: EVQLVESGGGLVQPGGSLRLSCAASGFTFSEYPMGWFRQAPGKEREFVAVVNWNGDSTYYADSVKGRFTISADNSKNTAYLQMNSLKPEDTAVYYCARGSDWYRYWGQGTLVTVSS
notes: VHH-Fc
B4: TIGIT-SC46 (Fc fusion)
VHH: EVQLVESGGGLVQPGGSLRLSCAASGRTFSNYVMGWFRQAPGKERELVASISSFGSTYYADSVKGRFTISADNSKNTAYLQMNSLKPEDTAVYYCARSGGFLSDWGQGTLVTVSS
notes: VHH-Fc
B5: TIGIT-SC51 (Fc fusion)
VHH: EVQLVESGGGLVQPGGSLRLSCAASGRTEANYAMGWFRQAPGKEREFVAAISWDGGATAYADSVKGRFTISADNSKNTAYLQMNSLKPEDTAVYYCGDYEGHWGQGTLVTVSS
notes: VHH-Fc
B6: TIGIT-SC68 (Fc fusion)
VHH: B5 VHH with R27H, E29F, A30R, N31G, F47A, D54S, G56D, A57N, A59Y
notes: VHH-Fc
B7: TIGIT-SC57 (Fc fusion)
VHH: EVQLVESGGGLVQPGGSLRLSCAASGNTFSGGFMGWFRQAPGKEREWVASVLRGGYTWYADSVKGRFTISADNSKNTAYLQMNSLKPEDTAVYYCTTYRGWGQGTLVTVSS
notes: VHH-Fc
B8: TIGIT-SC64 (Fc fusion)
VHH: EVQLVESGGGLVQPGGSLRLSCAASGFAFSNFGMGWFRQAPGKERELVSAIGWSGASTYYADSVKGRFTISADNSKNTAYLQMNSLKPEDTAVYYCARRGRTIPFDYWGQGTLVTVSS
notes: VHH-Fc
B9: TIGIT-SC65 (Fc fusion)
VHH: EVQLVESGGGLVQPGGSLRLSCAASGFTFGNYDMGWFRQAPGKEREFVAAITGSGRSTYYADSVKGRFTISADNSKNTAYLQMNSLKPEDTAVYYCARGRIAASGTKVYWYFDLWGQGTLVTVSS
notes: VHH-Fc
B10: TIGIT-31-35 (VHH-V5-His) (VHH)
VHH: EVQLVESGGGLVQPGGSLRLSCAASGFTFSTSWMGWFRQAPGKERELVASITSGGTTNYADSVKGRFTISADNSKNTAYLQMNSLKPEDTAVYYCAADVWYGSTWRNWGQGTLVTVSS
notes: not shown: V5-His tag
B11: TIGIT-31-47 (VHH-V5-His) (VHH)
VHH: B10 VHH with T31G, S32N, L47W, A49V, S50G, T52S, T57P, N58H
notes: not shown: V5-His tag
B12: TIGIT-31-34 (VHH-V5-His) (VHH)
VHH: EVQLVESGGGLVQPGGSLRLSCAASGRSRYGMGWFRQAPGKEREFVSAISWSGISTYYADSVKGRFTISADNSKNTAYLQMNSLKPEDTAVYYCAATQWGSSGWKQARWYDWGQGTLVTVSS
notes: not shown: V5-His tag
B13: TIGIT-31-56 (VHH-V5-His) (VHH)
VHH: EVQLVESGGGLVQPGGSLRLSCAASGRIFRRNSMGWFRQAPGKEREFVAVITRSGGGEVTTYADSVKGRFTINADNSKNTAYLQMNSLKPEDTAVYYCAMSSVTRGSSDWGQGTLVTVST
notes: not shown: V5-His tag

Key:
human TIGIT-Fc [1] = biological target: T1, human TIGIT-Fc; experiment: CD155 competition ELISA, single point; note: test concentration or dose not given here
Procedure: (§1) TIGIT/CD155 inhibition of VHH-Fcs were assessed using an ELISA assay (Table 10B). Briefly, human TIGIT-Fc was coated on a plate & then incubated with VHH-Fcs and human CD155-biotin. Bound CD155-biotin was detected using a streptavidin-HRP conjugate visualized with TMB. Strong inhibitors from the single point screen were titrated to determine EC50 (Table 10C).

human TIGIT-Fc [2] = biological target: T1, human TIGIT-Fc; experiment: CD155 competition ELISA, titration
Procedure: as §1

TIGIT = biological target: T2, TIGIT; experiment: SPR, VHH-V5-His

Binder	OD (450 nm) (human TIGIT-Fc [1]) [OD]	EC50 (human TIGIT-Fc [2]) [nM]	Kd (TIGIT) [nM]	RU (TIGIT) [RU]	koff (TIGIT) [s⁻¹]	kon (TIGIT) [M⁻¹ s⁻¹]
B1	0.125	1.78				
B2	0.144	2.08				
B3	0.143	0.181				
B4	0.111	1.37				
B5	0.129	3.47				
B6	0.607	6.52				
B7	0.0807	1.53				
B8	0.197	9.58				
B9	0.0846	4.09				
B10			346	78	0.01	30000
B11			186	119	0.004	20000
B12			473000	25300	0.2	400
B13			382	301	0.01	30000
